How the values were obtained:
[1] = molecular target: T1, human ApoC3 (huApoC3), native protein purified from human serum (human, UniProt P02656 21-99); assay: SPR Biacore, huApoC3 on chip, scFv-Fc as analyte
T1 construct: Athens Research and Technology; randomly biotinylated in some assays; also called Apolipoprotein C3
Procedure: This example describes characterization of anti-ApoC3 antibodies regarding their affinity to ApoC3 under neutral conditions using an SPR-based assay using a Biacore 3000 instrument (Biacore AB). Native huApoC3 protein was immobilized on a CM5 chip. The immobilization was performed in accordance with the method provided by Biacore using the NHS/EDC kit (Biacore AB): after activation of the chip, a solution of 60 μg/ml of human ApoC3 in 10 mM acetate buffer with pH of 4.5 was prepared and injected until the surface density reached approximately 1000 RU. Capturing of the human ApoC3 on the streptavidin coated chip (SA) was performed at pH 7.4 in accordance with a method provided by Biacore via injection of 20 μl 10 μg/ml biotinylated human ApoC3 thereby reaching the surface density of approximately 500 RU. […] After the dissociation, the flow cell surfaces were regenerated by injecting 10 μl of 10 mM […]/1 M NaCl and 10 μl of 10 mM glycine at pH1.5. The resulting sensorgrams were analyzed using the BIAevaluation 4.1 software using Langmuir 1:1 binding model to derive binding kinetics. Data was zero adjusted and the reference cell sensorgrams were subtracted.
A number of scFv-Fc antibodies were examined in this assay. The association rate (ka), dissociation rate (kd), analyte binding capacity (Rmax), equilibrium association constant (KA) and equilibrium dissociation constant (KD) of these antibodies are shown in Table 5.

[2] = molecular target: T1, human ApoC3 (huApoC3), native protein …; assay: cell-based or functional assay
[3] = molecular target: cynomologus monkey ApoC3 (cynoApoC3), native protein (Macaca fascicularis (cynomologus monkey), UniProt P18659 21-99); assay: SPR (Biacore 3000), antibody IgG1 amine-coupled to a CM5 chip, native ApoC3 injected, HBS-EP pH 7.4
Procedure: The SPR experiments were carried out using a Biacore 3000 instrument (GE Healthcare). Flow cells of CM5 sensor chips were coupled with the generated IgG formatted antibodies of 14C7, 5A7, 5E5 and 6A6 (˜2000 RU) using the amine coupling chemistry. The coupling was performed using the adaptive immobilization Biacore protocol aiming 2000 RU as coating density, using 10 μg/ml antibody solutions in 10 mM sodium acetate buffer at pH 5.0. For all experiments the HBS-EP buffer at pH 7.4 was used as running and dilution buffer. 60 μl of human native ApoC3 or cynomologus monkey native ApoC3 protein preparations in the concentration range of 10 to 200 μg/ml were injected over all flow channels, followed by an off-rate wash at pH7.4 for 5 min. All injections were performed at a constant flow rate of 30 μl/min at 25° C. After the dissociation, the flow cell surfaces were regenerated by injecting 10 μl of 10 mM NaOH/1 M NaCl and 10 μl of 10 mM glycine at pH1.5. The resulting sensorgrams after blank channel subtraction were used to confirm cross-species reactivity and to evaluate affinity.

[4] = molecular target: T1, human ApoC3 (huApoC3), native protein …; assay: SPR Biacore, huApoC3 on chip, IgG1 as analyte

Chain of cynomologus monkey ApoC3 (cynoApoC3), native protein (P18659 21-99 limits assumed): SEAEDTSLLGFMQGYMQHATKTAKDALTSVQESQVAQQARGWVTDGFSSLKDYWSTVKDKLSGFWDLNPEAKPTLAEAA
T1 sequence (P02656 21-99): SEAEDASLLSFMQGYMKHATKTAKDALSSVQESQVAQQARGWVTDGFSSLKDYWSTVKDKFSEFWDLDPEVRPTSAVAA

Row | Ka [1] | Kd [1] | koff [1] | kon [1] | attenuation of the ability of ApoC3 to inhibit VLDL uptake by HepG2 cells [2] | binding result [3] | EC50, attenuation of ApoC3-mediated LPL inhibition (NEFA production) [2] | Ka [4] | Kd [4] | koff [4] | kon [4] | Binder
1 | 1.72e+09 M⁻¹ | 0.581 nM | 9.44e-05 s⁻¹ | 163000 M⁻¹ s⁻¹ | ~75% | – | – | – | – | – | – | 8F4 scFv-Fc (Fc fusion, scFv-Fc format) VH: QLQLVESGGGLVQPGGSLRLSCAASGFAFSSYSMYWVRQAPGKGLERVAAIKTDGGSTNYADSVKGRFTVSRDNAKNTLYLQMNSLKSEDTAVYYCVIQGYGTWGQGTQVTVSS VL: DLVLTQIPGSLSVVPGESASISCKASQSLVHSDGKTYLYWLLQKPGQSPQRLIYQVSNRGSGVPDRFTGSGSGTDFTLKISGVEAEDAGVYYCAQATYYGHSFGSGTRLEIK
2 | 2.52e+09 M⁻¹ | 0.397 nM | 7.44e-05 s⁻¹ | 187000 M⁻¹ s⁻¹ | ~70% | – | – | – | – | – | – | 8H4 scFv-Fc (Fc fusion, scFv-Fc format) VH: ELQLVESGGGLVQPGRSLRLSCAASGFTFSSYSMRWVRQTPGKGLEWVTSINSDGGSTKYSDSVKGRFTISRDNAKNTLYLQMNNVKPEDTAIYYCAIQGYTDWGQGTQVTVSS VL: DVVLTQTPGSLSVVPGESASISCKVSQSLVHSDGKTYLYWLLQKPGQSPQRLIYQVSNRDSGVPDRFTGSGSGTDFTLKISGVKAEDAGVYYCAQGTYNPYTFGSGTRLEIK
3 | 2.58e+09 M⁻¹ | 0.388 nM | 6.64e-05 s⁻¹ | 171000 M⁻¹ s⁻¹ | ~70% | – | – | – | – | – | – | 10B6 scFv-Fc (Fc fusion, scFv-Fc format) VH: EVQLVESGGGLVQPGGSLRLSCAASGFTFSSYAMRWVRQAPGKGLEWISSINIDGGSTRYTDSVQGRFTVSRDNAKNTLYLQMNNLKPEDTGIYYCTIQGYIYWGQGTQVTVSS VL: ATMLTQSPGSLSIVPGESASISCKASQSLVHSNGVIYFYWLLQKPGQSPQRLIYQVSNRDSGVPDRFTGSGSGTDFTLKISGVKAEDAGVYYCAQGTYYPHSFGSGTRLQIK
4 | – | – | – | – | – | binds | ~2000 nM | 1.46e+09 M⁻¹ | 0.684 nM | 5.61e-05 s⁻¹ | 82000 M⁻¹ s⁻¹ | 14C7 IgG1 (antibody, V domains shown, IgG1 format) VH: QVQVQESGPGLVKPSQTLSLTCTVSGGSITTNSYYWSWIRQPPGKGLEWMGAIDYSGDTYYSPSLKSRTSISRDTSKNQFTLQLTSVTPEDTAVYYCVSRIPTGEYWGQGTQVTVSS VL: QTVVTQEPSLSVSPGGTVTLTCGLNSGSVTSSNYPDWYQQTPGQAPRLLIYNTNSRHSGVPSRFSGSISGNKAALTITGAQPEDEADYYCALYMGSDSVVFGGGTHLTVL
5 | – | – | – | – | – | binds | > 5000 nM | – | – | – | – | 6A6 IgG1 (antibody, V domains shown, IgG1 format) VH: EVQLVESGGGLVQPGGSLRLSCAASGFTFSSYAGRWVRQVPGKGLEWVSSINAGGGSTSYADSVKGRFTISRDNAKNTLYLQMNSLKPEDTAKYYCTQNSYRYWGQGTRVAVSS VL: DVVLTQTPGSLSVVPGESASISCKASQSLIHTDGKTYLYWLLQKPGQRPQLLIYQVSSHESGVPDRFTGSGSGTDFTLKISGVKAEDAGVYYCAQATYNPRTFGQGTKLEIK
6 | – | – | – | – | – | binds | – | – | – | – | – | 5A7 IgG1 (antibody, V domains shown, IgG1 format) VH: EVQVQESGPGLVKPSQTLSLTCTVSGASITNRRYAWTWIRQPPGKGLEWMGVIVYDGNTHVSPSLRSRTSISRDTSKNQFSLQLSSLTPEDTAVYYCARVLLLRDPLSLDYWGQGTQVTVSS VL: SSALTQPPSMSGTLGKTLTISCAGTSSDIGAYNFVSWYQQLPGTAPKLLIYDIDKRASGIPDRFSGSKSGNTASLSISGLQSEDEADYYCAAYGSRDNVVFGGGTHLTVL

More lines, now with the values behind:

Row | Binder | Ka [1] | Kd [1] | koff [1] | kon [1] | attenuation of the ability of ApoC3 to inhibit VLDL uptake by HepG2 cells [2] | binding result [3] | EC50, attenuation of ApoC3-mediated LPL inhibition (NEFA production) [2] | Ka [4] | Kd [4] | koff [4] | kon [4]
7 | 6A6 scFv-Fc (Fc fusion, scFv-Fc format) VH: EVQLVESGGGLVQPGGSLRLSCAASGFTFSSYAGRWVRQVPGKGLEWVSSINAGGGSTSYADSVKGRFTISRDNAKNTLYLQMNSLKPEDTAKYYCTQNSYRYWGQGTRVAVSS VL: DVVLTQTPGSLSVVPGESASISCKASQSLIHTDGKTYLYWLLQKPGQRPQLLIYQVSSHESGVPDRFTGSGSGTDFTLKISGVKAEDAGVYYCAQATYNPRTFGQGTKLEIK | 6.41e+09 M⁻¹ | 0.156 nM | 0.000186 s⁻¹ | 1.19e+06 M⁻¹ s⁻¹ | ~75% | – | – | – | – | – | –
8 | 5A4 scFv-Fc (Fc fusion, scFv-Fc format) VH: QLQLVESGGGLVQPGGSLRLSCVASGFAFSHYTMYWVRQAPVRGLERVSAISGGGDRTIYTDSVKGRFTISRDNAANALYLQMNSLQPEDTAVYYCVAQGYEYWGQGTRVTVSS VL: ATMLTQSPGSLSVVPGESASISCKAIQSLVHTDGKTYLYWFLQKPGQSPQRLIYQVSNRGSGVPDRFTGSGSGTDFTLKISGVKAEDAGVYYCAQGTYSSKTFGQGTKLEIK | 3.02e+09 M⁻¹ | 0.331 nM | 0.000351 s⁻¹ | 1.06e+06 M⁻¹ s⁻¹ | ~100% | – | – | – | – | – | –
9 | 5A11 scFv-Fc (Fc fusion, scFv-Fc format) VH: QVQVQESGPGLVKPSQTLSLTCTVSGVSITTRYYAWSWIRQPPGKGLEWMGVIAYDGSTYYSPSLKSRTSISRDTSKNQFSLQLTSVTPEDTAVYYCARVRLIEAPYEYDYWGQGTQVTVSS VL: QAVVTQEPSLSVSPGGTVTLTCGLSSGSVTTRSYPGWFQQTPGQAPRSLIHSTSSRHSGIPTRFSGSISGNKAALTITGAQPEDEADYYCALDIGSYIVFGGGTHLTVL | 2.15e+09 M⁻¹ | 0.465 nM | 0.000668 s⁻¹ | 1.44e+06 M⁻¹ s⁻¹ | ~55% | – | – | – | – | – | –
10 | 8A4 scFv-Fc (Fc fusion, scFv-Fc format) VH: QVQLVESGGGLVQPGGSLKVSCTASGFTFNNYAMRWVRQAEGKGLEWVSSIDSGGDRTKYGDSVKGRFSISRDNAKNTVYLQMDALKPEDTGVYYCVSQGYIFWGQGAQVTVSS VL: ATMLTQSPGSLSVVPGESASISCKASQSLVHSDGKTYLYWLLQKPGQRPQLLIYQVSNHESGVPDRFTGSGSGTDYTLKISGVKAEDAGVYYCAQATYYPLTFGQGTKVELK | 4.27e+09 M⁻¹ | 0.234 nM | 7.02e-05 s⁻¹ | 300000 M⁻¹ s⁻¹ | ~40% | – | – | – | – | – | –
11 | 5E5 scFv-Fc (Fc fusion, scFv-Fc format) VH: QLQLVESGGGLVQPGGSLRLSCAASGFTFGTYSMRWVRQVPRKALEWVSSISTDGGGTAYRDSVKGRFTISRDNAKNTLYLQMNNLKPEDTAIYYCVIAGYSDWGQGTQVTVSS VL: ATMLTQSPGSLSVVPGESASISCKTSQGLVHSDGKTYFYWFLQKPGQSPQQLIYQVSNRASGVPDRFTGSGSGTDFTLKISGVKAEDAGVYYCAQGTYYPHTFGSGTRLEIK | 5.94e+08 M⁻¹ | 1.68 nM | 0.000437 s⁻¹ | 260000 M⁻¹ s⁻¹ | ~100% | – | – | – | – | – | –

Source: patent US20190241648A1 (STATEN BIOTECHNOLOGY B V, published 2019)
